Target: T1, α2,6-sialylated recombinant human IgG1 Fc (sFc), prepared by papain cleavage of full-length IDEC-114 antibody … (human, UniProt P0DOX5 227-449 = IgG part, limits assumed, N-linked glycan at Asn297 with terminal α2,6-linked sialic acid (in vitro galactosylation and sialylation))
T1 construct: also called α2,6-sFc; α2,6 sFc
Experiment: SPR steady-state affinity, immobilized DC-SIGN ECD
Method: To determine the interaction between various recombinant Fc preparations to soluble hDC-SIGN or hFcγRs, steady-state affinity measurements were recorded on a Biacore T100 sensor. Receptors, diluted to 20-50 μg/mL in NaOAc pH 5.0, were immobilized on CMS chips at high density (2000 RU) by standard amine coupling. For hDC-SIGN interactions, injections were performed at a flow rate of 20 μL/min with commercially available HBS-P+ buffer adjusted to pH 9.0 and supplemented with 2 mM CaCl₂ and 500 mM NaCl. For hFcγRs interactions, injections were performed at a flow rate of 20 μL/min with commercially available HBS-EP+ buffer. Surfaces were regenerated with a short pulse of 50 mM NaOH. Kd values were calculated after subtraction of background binding to a control flow cell using Biacore Evaluation software.

- Kd: ~1.3 µM
B1: soluble human DC-SIGN extracellular domain with N-terminal strep tag (receptor, UniProt Q9NNX6 59-404, looked up)
chain: QVSKVPSSISQEQSRQDAIYQNLTQLKAAVGELSEKSKLQEIYQELTQLKAAVGELPEKSKLQEIYQELTRLKAAVGELPEKSKLQEIYQELTWLKAAVGELPEKSKMQEIYQELTRLKAAVGELPEKSKQQEIYQELTRLKAAVGELPEKSKQQEIYQELTRLKAAVGELPEKSKQQEIYQELTQLKAAVERLCHPCPWEWTFFQGNCYFMSNSQRNWHDSITACKEVGAQLVVIKSAEEQNFLQLQSSRSNRFTWMGLSDLNQEGTWQWVDGSPLLPSFKQYWNRGEPNNVGEEDCAEFSGNGWNDDKCNLAKFWICKKSAASCSRDEEQFLSPAPATPNPPPA
notes: extracellular domain; also called DC-SIGN ECD; soluble hDC-SIGN; not shown: N-terminal strep tag

Reference: US20140377280A1 (ROCKEFELLER UNIVERSITY, published 2014)
